Measured values as given in the supplement of paper PMC9170038.

Tested on: K4 kissing-loop RNA reporter
Assay: apparent KD of K4 kissing-loop reporter; higher = weaker reporter binding
Settings: Eterna round: R107
Procedure: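 RNA-MaP round R107: designed RNA switches with theophylline, tryptophan, arginine or FMN aptamers are transcribed on-chip within common flanks. They are titrated with a labelled K4 kissing-loop RNA reporter in RNA-MaP buffer (100 mM Tris pH 7.5, 80 mM KCl, 4 mM MgCl2), without ligand or with the indicated ligand. Median apparent KD per design.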

[1] = input ligand: theophylline 20 uM
[2] = input ligand: tryptophan 2.4 mM
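Also: bound reporter read as fluorescence of individual clusters on recovered sequencing chips by microscopy, with normalized cluster intensities fitted with a binding model.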

Row | Sequence | apparent KD of K4 kissing-loop reporter (input ligand: FMN 200 uM) | apparent KD of K4 kissing-loop reporter (input ligand: arginine 13.2 mM) | apparent KD of K4 kissing-loop reporter (input ligand: none) | apparent KD of K4 kissing-loop reporter [1] | apparent KD of K4 kissing-loop reporter [2]
1 | UUUCGUCUCUGAGGAUAUCAGACGAGAGUGAUGUUCUCCCAAAGCCCAGUGAUGUUGGAUGCUAUCUGAGAAGGCAGUGGGCGAA [Same State FMN B GF 12] | 227 nM | 584 nM | 554 nM | 634 nM | 508 nM
2 | CAUACGCAUGGAGGAUAUGAGAUUACUCAUAUUAUUUAAUAUUCUCAGUGAUGUUGAGAUAUAAACUCAGAAGGCCAUGUGUAUG [Ex FMN B 1] | 184 nM | 152 nM | 143 nM | 166 nM | 153 nM
3 | UUCCACCGAGAAGGAUAUUAUGCUGGACUUGUUUAAGUGUUAAAUAGUGAUGUUAUUUGAUCGGAAUAAGAAGGUCUCAAGUUGA [theeternabot_sameState_KL_FMN_B_44] | 155 nM | 131 nM | 145 nM | 142 nM | 119 nM
4 | UUGUCCGGGUGAUGGUCAUCACGUGGCGGGCGAGGACCGGUACGGCCGCCACUCGACUUUGCAGUGAUGUUGCAAACCGGACAAU [Exclusion - Tryptophan A (Freestyle 23)] | 231 nM | 174 nM | 192 nM | 224 nM | 210 nM
5 | UAUAGACAAGUGAUGUUUGUCAUAUCCGAAGGAGCGUCUUCUAAGACAGGUAGGUCGCGGAUUAAUUUUGUUAUGAUACUAUUUA [JR_SSArginiA_Sub016] | 122 nM | 120 nM | 126 nM | 133 nM | 104 nM
6 | AAACUUGCAGUGAUGUUGCAAGUAGGUGAUACCAGCAUCGAAAGAUGCCCUUGGCAGCACCAUCUUGCAACAAAGGUGCUGCCAA [(H1)-(H2)-(T1)-(T2)-(H)'-(T)'_Design7] | 87.5 nM | 77.4 nM | 88.2 nM | 67.6 nM | 81.2 nM
7 | UUUUUGGAGAAUUAUAGUGAUGUUAUGAAGAAGGAUAUCUAAAGAUGGAGAAGGUUUAAUAGUUAAGGGAUGGAGGGUGGGUGGG [ExFMNA.P] | 282 nM | 155 nM | 293 nM | 221 nM | 194 nM
8 | AAGUAGCUCUCGGCCGCCACUCCUCAGUGAUGUUGAGAUAUUAAUUGCCAAUUGGCGUAUUUAAAGAGGACCGGGAGAGCUACAA [AK3 SS Tryptophan B] | 368 nM | 315 nM | 378 nM | 328 nM | 117 nM
9 | AAUUAAUGUAUAGAUUAUAUACAUUAAUCAGAGGAUAUGCAUUGUUGCAGAAGGCUGAAUGCAGUGAUGUUGCAAUGGAAAUUUA [JR_SSFMNA_Sub004] | 53.8 nM | 201 nM | 181 nM | 376 nM | 120 nM
10 | CGAUCUGAUAGCAGUGAUGUUGCUACAGAUACCAGUCCAGAUCGAGACCCUUGGCAGCUGACCCGGCAUGUGCUAUGGUAGAUCG [Theo A Ex t1] | 156 nM | 127 nM | 155 nM | 154 nM | 146 nM
11 | UGCAUGCUUGGAGUGAUGUUCCAAGAUGAUACCAGUGCUUUUUUGCACCCUUGGCAGCGUCUGAUUGCAUGCACGUCGAAAGACG | 531 nM | 471 nM | 529 nM | 490 nM | 517 nM
12 | GGAGAGAACUGAAGGAGCGGCAAGAGAGAAGGAAAUAUAGUGAUGUUAUAUAAGAGAGAGAGCCAGGUAGGUCGCAGAGGGAGGA [ExArgB.A] | 201 nM | 153 nM | 147 nM | 164 nM | 149 nM
13 | GAGGCCAGACGGAGUGAUGUUUCGUAUGAUACCAGCAGCGAAAGCUGCCCUUGGCAGCAUGCCACGGCCUCGGCGGGAAACCGCC | 372 nM | 319 nM | 397 nM | 446 nM | 384 nM
14 | GUCCCAGUGAUGUUGGUAGGCGGGCGGGAUACCAGCGGAGACUCACGCCCUUGGCAGCCCACAUAUCCCGCGUAGGGAUUAGCCC [Same State - Theophylline A (Freestyle 23)] | 285 nM | 258 nM | 316 nM | 339 nM | 275 nM
15 | GUUACGCAUGGAAGGAGCGCAUGCUCAACAAUAAGCUCAGUGAUGUUGAGCAAAAUUAAAAUGCAGGUAGGUCGCCAUGUGUAAC [Ex Arginine B K4 28] | 542 nM | 519 nM | 576 nM | 528 nM | 555 nM
16 | GGGUCAGUCUGAAGGAGCGGCCAGACAGAGCAGUGAUGUUGCUCCUCCGGAAACGGUGUCGGCCAGGUAGGUCGCAGAUUGGCUC [Dienralais mod v1] | 153 nM | 122 nM | 137 nM | 126 nM | 124 nM
17 | AGUGGUGUAUCUUUUAAGAGUGAUGUUUUUCGAGGACCGGUACGGCCGCCACUCGAGUGAUGAGAGCGUCGUUGUGGUGAUUAGU [#15 K4 Tryptophan A Exclusion] | 814 nM | 582 nM | 877 nM | 860 nM | 479 nM
18 | UAGGAGUGAUGUUCCUAUAGCAGGUAGGAAGGAGCGCCCAUUUGGGCAGGUAGGUCGCCUACCGGCCCUAAGUUAAACCUUAGGC [Rariar] | 99.6 nM | 111 nM | 92.6 nM | 109 nM | 89 nM
19 | AUUUUUUUGUCAGGAUAUUAGUGUGGGUUUGGUUUGUUAGUGAUGUUGAUAUUUGGUUUAUGUAUUUAAGAAGGGAUUUAGCGGU [frrvemullin] | 563 nM | 359 nM | 408 nM | 492 nM | 375 nM
20 | AUUUAAUGUAUAGAUUAUAUACAUUAUUCAGAGGAUAUGCAUUGAAGCAGAAGGCUGGGUGUAGUGAUGUUGCAAUUUUAAUUUA [whbob_SS_FMNA__2th172] | 118 nM | 184 nM | 159 nM | 299 nM | 84.1 nM
21 | AAUGGGUGAUAAGGAUAUCCACCUCACAAACCAAGAGUGAUGUUCGUUGGUCCAUGGACAAUAUGUGGAGAAGGUAUAGUGAUUA [theeternabot_exclusion_KL_FMN_B_48] | 855 nM | 853 nM | 1000 nM | 747 nM | 700 nM

Row | Sequence | apparent KD of K4 kissing-loop reporter (input ligand: FMN 200 uM) | apparent KD of K4 kissing-loop reporter (input ligand: arginine 13.2 mM) | apparent KD of K4 kissing-loop reporter (input ligand: none) | apparent KD of K4 kissing-loop reporter [1] | apparent KD of K4 kissing-loop reporter [2]
22 | AAGGUAUCACCAACAUUGCAAGAAGGUGAUACCAGCAUCGAAAGAUGCCCUUGGCAGCACCAACUUGCAGUGAUGUUGCAAGUAA [(T)'-(H)'-(T1)-(T2)-(H1)-(H2)_Design8] | 274 nM | 210 nM | 267 nM | 213 nM | 226 nM
23 | AUUAAUAACUGAGGAUAUCGUUUUACUGUAGUGAUGUUACAGAAAGUUCAAAUUAUAAUUUCUAUUCGAGAAGGCAGAAUAAUUA [JR_SSFMNB_Sub026] | 77.7 nM | 68.9 nM | 53.5 nM | 62.8 nM | 48.1 nM
24 | CCGGCCCGGCCGGAUACCAGUGCGCCGCUGGGAACUGCGGGCCCAGAGUGAUGUUCGGGACACCCUUGGCAGCCGCCUGGGUCGC [#2 Same State - Theophylline B Attempt #25 (HarryS)] | 450 nM | 345 nM | 562 nM | 360 nM | 439 nM
25 | AAGCAGUCACUCGUAUCCAUCGAAGAUGGUCGAGGACCGGUACGGCCGCCACUCGGAGUGAUGUUCCGAAGACUGCAAAAUAAAA [#SwitchBubble 13] | 240 nM | 230 nM | 250 nM | 296 nM | 348 nM
26 | AAAAUAAAGCAGUGAUGUUGCAUAUGAGAAGGAGCGCACGAAAGUGCAGGUAGGUCGCUCAGCCAAGUGGACGAAAACGUCCACA [#OpenEnded 9 #K4Early] | 107 nM | 172 nM | 119 nM | 168 nM | 93.7 nM
27 | GCGCGUCAUGUCAGCGGUGACACUGUCGAUACCAGUGCCGGAAGGCGCCCUUGGCAGCGACGUGCUGGAGUGAUGUUCCAGCGUU [#2 Exclusion - Theophylline A Attempt #28 (HarryS)] | 136 nM | 128 nM | 151 nM | 131 nM | 130 nM
28 | UGAUACCAGGCGGCCGCCACUCCUACAGGUCAAAGACCUGUAGAACUGGUUUUUUAGUGAUGUUGGAGGACCGGGCCUGGUAUCU [FiskerMod 30 - Jieux - Exclusion - Tryptophan B] | 698 nM | 217 nM | 394 nM | 296 nM | 321 nM
29 | UCGGCGUACGGGCGGGUAGUGAUGUUGCUCCGAGGACCGGUACGGCCGCCACUCGAGGUACCAGUUCAUAGAACCUGGCACAUCA [theeternabot_exclusion_KL_Trp_A_23] | 409 nM | 296 nM | 541 nM | 261 nM | 266 nM
30 | AUUAUAUUGUGAAGGAGCGCGAAUAGCAGUGAUGUUGCUAUCAAACGAUAUAUUAUUUACACGCAGGUAGGUCGCACAAUAUAUA [JR_Nu_SSArginiB_Sub022] | 171 nM | 125 nM | 149 nM | 124 nM | 155 nM
31 | AAACGUUGGUGCGAUACCAGCUUGAUCGGUAAACGAUCUACUGGAGUGAUGUUCCUAAAUAGCCCUUGGCAGCGCACCGACGAAA [MAT - Same State Theophlline B - Mod of Eli - D8] | 181 nM | 155 nM | 169 nM | 128 nM | 166 nM
32 | AAAUGUUUGUAUUUGAACAAUUUCUUUAGGGAGGAUAUUGGUAAUACAAGAAGGCCCUGAUGGGAGUGAUGUUCCCAUAACGCGG [Exclusion FMN A GF15] | 46.7 nM | 83.9 nM | 74 nM | 87.5 nM | 62.1 nM
33 | UACUAUAGUGAUGUUAUAGAUAAACCAGAUACCAGUGUGACAUAACACCCUUGGCAGCUGAUAAGGGAACAUAUGAAAACAUAUG [AstroSSTHeAED5.17] | 146 nM | 120 nM | 132 nM | 120 nM | 128 nM
34 | UAAGAGGACCACUGCAAGAGUCCUCGAAUACGAGGACCGGUACGGCCGCCACUCGAUAACUUGUAGUGAUGUUGCAAGUAAGAAU [BrourdMod 1 - Jieux - Same State Tryptophan A] | 71.2 nM | 79.2 nM | 79.4 nM | 79.2 nM | 42.9 nM
35 | UCACGAGUGAUGUUCGUCGCAAUCACCGAAGGAGCGGGCGAAAGCCCAGGUAGGUCGCGGUAGAAUAAUGAUUUUAUUCGAUUGC [Same State Arginine A GF 26] | 786 nM | 602 nM | 756 nM | 613 nM | 568 nM
36 | UGAUACCAGACGGCCGCCACUGGUGCAUGUCAAAGACAUGCUAACCAAAUCGUGGAGUGAUGUUCCAGGACCGGGUCUGGUAUCU [TrypBX 22 #SwitchBubble #Palindromic #StaticStem] | 235 nM | 207 nM | 217 nM | 239 nM | 570 nM
37 | AGCCGAAAGGCGAGUGCUGUCACUCCGGAAGGAGCGCCCAAAAGGGCAGGUAGGUCGCCGGAGUGAUGUUCCGGUGCAGCACUCA [Omei KL Arginine A Exc B v3] | 572 nM | 497 nM | 784 nM | 533 nM | 482 nM
38 | GGAUUGCCAGUGAUGUUGGCAUAAACUGAAGGAGCGCGUGAAAACGCAGGUAGGUCGCAGAACCUUGCCAACUAUUUUAUUUACC [Ex Arginine A K4 23] | 89.3 nM | 118 nM | 97.9 nM | 103 nM | 79.8 nM
39 | AAACCCAGUGAUGUUGGGAAUCAGUUGAGGGAGGAUAUUGGUAAUACAAGAAGGCCCGGCUGCGGGUGAUGUUCGCAUUAGGGCC [Exclusion FMN A GF17] | 160 nM | 157 nM | 152 nM | 154 nM | 140 nM
40 | CCAUCGCUAUUCGAUACCAGCUAAAUAUAAUAUAACCAGUGAUGUUGGUAUAUAAAUAUAAGCCCUUGGCAGCGAAUAGUGAUGG [Theophylline B K4 30] | 139 nM | 107 nM | 113 nM | 103 nM | 109 nM
41 | AUGGUGGAGGAGUGAUGUUCUUGGAGUAGGUAGGAUAUGAGUGAUGUUAGAAGGAUCGGAGUGAUGUUCCAGGUGGUUGUGUUGU [KL-SSFMN-A2] | 570 nM | 303 nM | 765 nM | 453 nM | 412 nM
42 | GUGCGGCUAGUGAUGUUGGUUGUGUGGGAAGGAGCGCAGAUUCAUGCAGGUAGGUCGCCCACACGUCUGAAAGGAUGAUAAUUCA [#12 K4 Arginine A Same State] | 409 nM | 306 nM | 354 nM | 407 nM | 350 nM
